We go through four molecules from publication PMC4219626 (Nature structural & molecular biology, 2014).

For orientation: stoichiometry N means a count of units in the complex or per binding partner.

Sequences and labels used below:
B1: Rrn11 (recombinant) (natural protein, S. cerevisiae, UniProt Q04712 1-507, looked up)
chain: MFEVPITLTNRKFAQRRKLKYQYINYISRRFDRISKKSTTTDSLPTPENSAAENNDEEEGQNSEAGTYRRSVLQQKKRRRERHWRSVVGEIYSTTESETDSQEEETEEGGEHDTGIDKEDSDEERKFWKKYEKPEKSFEIWRTVSSQNKQPINKQKMTYHNFKKIEKIPLRKMEIPLLHCTKENKLYFQSISRGLEPLKTSTSEVRNYRTRHIVTLTDLLHLNVSRHNWSLAYKIFATLIRIPGVQIKSLWGIGVEILDNLSNSSSGLDFLQWMCQIYSSKSRFVQNINYRSIVPPFQTGSRTHTAKFAITYLWSSLINCQKSMEPSSNIIDKPFDTENDLLQELIDKISEWVLTPPFMEDAEVWFIYASCHLLKADTLSRQFVNDNKNNDLIGLDRDIKINQVIKHIHYVRTFLKICLDKGGFAVPSRLIENQLKSFESRLYGEAQDIQERDVANVYDSIDNSSVENSFGDVYETNAEFLDTQLMDLSPEDNGLDEMHYSDEDSSE
B2: TATA binding protein (TBP) (natural protein, S. cerevisiae, UniProt P13393 1-240, looked up)
chain: MADEERLKEFKEANKIVFDPNTRQVWENQNRDGTKPATTFQSEEDIKRAAPESEKDTSATSGIVPTLQNIVATVTLGCRLDLKTVALHARNAEYNPKRFAAVIMRIREPKTTALIFASGKMVVTGAKSEDDSKLASRKYARIIQKIGFAAKFTDFKIQNIVGSCDVKFPIRLEGLAFSHGTFSSYEPELFPGLIYRMVKPKIVLLIFVSGKIVLTGAKQREEIYQAFEAIYPVLSEFRKM
B3: Rrn6 (recombinant, His6-tagged) (natural protein, S. cerevisiae, UniProt P32786 1-894, looked up)
chain: MSEGQIPSSDVLGSQLGVGVQGASLYCPQENYTTKKQEKPQWLRPVDDTLAEDALDLHIVVKSLLCDTAIRYISDDKVLQESDADDDLITSDIDEDTDNQGDTSIVVNPVIPVVPKDVHFFKKVDVGNDSMFGVNCDTPVSFQDYIPSDLLRNLDDTLQESTNSSRPMQDAFFWDPTVANRLDSQYIQTASDLRNYRDGTEIIAYASGKTGSVLNIAVLTRQNTLHLNRHNNVTSIELHSPIKSIKIPGASESIGRRSNLVGIITENSFQIFRIESVHSRSCDVMVSSSEPLYFVEIDDLQVVDFAFNPWDLQQFAIIDIKGNWSIGRIPKNFNNNNKRKLQLIDNLHGTIFDPEELSSWKRIEWFSHFQKILVFDRSKMIEIDFMNNWQTEVVQAKAWSNIRDYKRIDDKNGILLTSREIIIVGASESNDPVRRISWKHDLDPDDTTLRITVQKVKKPDHILLVAFVYSMRHKRIYMHVFSHRKANLFQSLGCSTVLEIPGGTPTGIETILTLDHIDDESRREEDADENFELVVDFLVKLRNSSEVYYYALSNTQNSEPNKQETPIIVDHPEWASLFNNADEREKESIGALVSQIKLKERERISRVQNLIEHENSHDEDKYLQDLGYRLSIATNELLESWQKTKDESILSGSLSHSKLKNLLENSDSFASIPEFSSLLDQFFQYYQDQDVTFIGFEKLLHLFLHEDVPGLDIFYNKLLQCWVLVSPQAELLTKEIVKDIIWSLARLEKPSLFEPIQNEISRSLSGPYQDIISSWDMDDINEEDESNEFNFDSQFSAPFNGRPPFNLNSQSQIPTIKSSQSSGLARRKRILKTQSQKATPLSQSTQNLSVLPDSMTPAFTLMQPPSSQISFVNDSQPRNSQKAKKKKKRIRGFG
B4: Rrn7 (recombinant, His6-tagged) (natural protein, S. cerevisiae, UniProt P40992 1-514, looked up)
chain: MSTFIRGPICGTDNCPSRLWRIIDGRRTCQYGHVMEGDVEFNDDEDDLNGLGAGVITRRLNLTTNATGSFQSSQLTNSQLLQQQQRQSHKKFKKLIGHEAKLLFLKSFQFILKRQIRWLITEMRFPKEFEHVAKIIWLKILKTINDQPQEELKLQLHMTSTISILYLASTHLSLPVYTCDYIKWICTAKMPYFQASEILPKSWRIQLPNYYVSILEGSISPFNGQLYNKIALTCGMIHFKEFFNSEISCQGLLLKLVMQCALPPEFYFYTKQVIEFEETDIRNLTLWERTDERHTGRVSNHAELRVLSYFMLTINWMLSFDRDRQYPLKWILSLTESLTQRTTTSESIGRNIVKVVYPDKPTSSDYFQWSEEETLEFLKWMEKQFLPTQTKSLHNENGSMEMTIDQKIARRKLYKIFPLDREANHDGEFNDSTHQLTFIEDLQERYAKQTPFFESNKIRDSLNYQEANPPARKEAIGRLLTHIASQLLVDFAISKEQLKDCISRIKNACLHRMN

In test [1] the target is B4. The test is described as follows: cross-linking.
Test [2] has as its target B3. The test is described as follows: cross-linking.
Test [3] addresses B4. The test is described as follows: cross-linking. The source holds these as a separate data set.
Test [4] addresses B3. The test is described as follows: cross-linking. This is another data set of the same source.
The test “Rrn11 (recombinant)” concerns the target B1. The test is described as follows: cross-linking.
Test [5] deals with B3. The test is described as follows: co-purification.

B1: the “stoichiometry N” value in test [1] and in test [2] was 1 each time.
As for B2, the binding result (in test [3]; in test [4]; with Rrn11 (recombinant)) was “binds” each time.
In the case of B3, the “stoichiometry N” value in test [1] was determined as 1.
In the case of B4, the binding result in test [5] is reported as “binds”.
